Source: the supplement of paper PMC10567573

B1: ZNF207 (parent)
chain: YQGGPPRPPMGMRPPVMSQGGRY
B2: SCNN1D (parent)
chain: FYRLYQDLETHRLPCTSRCPRPCR

Variants of: B1
Assay: protein stability index of a GFP-peptide fusion (GPS, HEK-293T) (PSI 1-6); higher = more stable
Conditions: c terminus: native
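Note: lentivirally expressed fusions sorted by FACS into six bins by GFP to DsRed ratio, PSI derived from sequencing read proportions per bin multiplied by bin number.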

Row | Variant | protein stability index
1 | R7M | 1.51
2 | R7S | 2.98
3 | R7V | 1.66
4 | P8A | 1.09
5 | P8C | 1
6 | P8H | 2.98
7 | P8I | 2.2
8 | P8K | 2.35
9 | P8N | 2.49
10 | P8S | 1.95
11 | P8V | 1.57
12 | P9A | 1.83
13 | P9G | 2.84
14 | P9H | 1.41
15 | P9I | 2.91
16 | P9K | 1.73
17 | P9L | 1.28
18 | P9M | 1.12
19 | P9N | 1.44
20 | P9R | 1.87
21 | P9T | 2.49
22 | P9V | 1.68
23 | P9W | 4.64

Row | Variant | protein stability index
24 | M10H | 2.34
25 | M10I | 3.45
26 | M10L | 1.4
27 | M10N | 1.82
28 | M10Q | 2.14
29 | M10S | 2.1
30 | M10V | 2.57
31 | G11C | 1.81
32 | G11H | 1.43
33 | G11I | 2.95
34 | G11L | 1.82
35 | G11N | 1.97
36 | G11P | 1.6
37 | G11S | 1.52
38 | G11Y | 2.14
39 | M12E | 2.88
40 | M12G | 2.05
41 | M12I | 2.25
42 | M12K | 2.34
43 | M12R | 1.35
44 | M12S | 2.64
45 | M12T | 2.64
46 | M12V | 2.79

Row | Variant | protein stability index
47 | R13F | 2.23
48 | R13I | 2.76
49 | R13M | 2.1
50 | R13S | 1.96
51 | R13W | 1.79
52 | P14A | 1.47
53 | P14C | 2.27
54 | P14G | 2.35
55 | P14K | 1.43
56 | P15D | 2.27
57 | P15E | 2.2
58 | P15F | 1.58
59 | P15H | 2.71
60 | P15K | 1.09
61 | P15N | 1.72
62 | P15Q | 2.65
63 | P15R | 2.07
64 | P15S | 2.23
65 | P15T | 1.61
66 | P15V | 3.12
67 | V16C | 2.44
68 | V16F | 2.18
69 | V16H | 2.71

Row | Variant | protein stability index
70 | V16I | 2.03
71 | V16K | 2.93
72 | V16N | 2.65
73 | V16W | 1.75
74 | M17C | 4
75 | M17D | 2.86
76 | M17F | 2.17
77 | M17G | 2.42
78 | M17K | 2.85
79 | M17L | 1.52
80 | M17Q | 2.56
81 | M17S | 2.62
82 | M17V | 1.49
83 | M17W | 1.67
84 | M17Y | 1.75
85 | S18D | 2.04
86 | S18E | 2.72
87 | S18H | 1.44
88 | S18K | 1.81
89 | S18L | 2.28
90 | S18N | 2.13
91 | S18P | 2.08
92 | S18R | 2.2

Row | Variant | protein stability index
93 | S18W | 2.56
94 | S18Y | 1.58
95 | Q19E | 2.17
96 | Q19H | 4.08
97 | Q19K | 2.18
98 | Q19L | 1.46
99 | Q19N | 2.56
100 | Q19P | 1.9
101 | Q19R | 2.17
102 | Q19T | 2.39
103 | G20E | 2.23
104 | G20F | 1.88
105 | G20K | 2.16
106 | G20R | 2.75
107 | G20S | 1.67
108 | G20W | 2.46
109 | G20Y | 1.68
110 | G21C | 2.24
111 | G21F | 1.72
112 | G21H | 1.77
113 | G21P | 3.63
114 | G21Q | 2.1
115 | G21R | 2.27

Row | Variant | protein stability index
116 | G21S | 1.82
117 | G21T | 2.74
118 | G21V | 2.3
119 | R22D | 1.89
120 | R22F | 1.21
121 | R22H | 1.91
122 | R22K | 1.99
123 | R22M | 1.69
124 | R22Q | 1.43
125 | R22S | 1.7
126 | R22T | 1.89
127 | Y23A | 1.98
128 | Y23C | 1.97
129 | Y23D | 3.11
130 | Y23E | 2.37
131 | Y23L | 1.66
132 | Y23M | 2.44
133 | Y23P | 2.82
134 | Y23S | 2.43
135 | Y23T | 1.9
136 | Y23V | 1.5
137 | Y23W | 3.51

Variants of: B2
Assay: as above
Conditions: c terminus: a fixed tail appended

Row | Variant | protein stability index
138 | F1A | 2.87
139 | F1C | 2.22
140 | F1D | 3.8
141 | F1E | 3.71
142 | F1G | 4.3
143 | F1H | 3.06
144 | F1I | 2.12
145 | F1K | 3.37
146 | F1L | 1.54
147 | F1M | 2.02
148 | F1N | 3.47
149 | F1P | 3.59
150 | F1Q | 2.71
151 | F1R | 2.92
152 | F1S | 3.2
153 | F1T | 3.46
154 | F1V | 2.13
155 | F1W | 2.91
156 | F1Y | 2.4
157 | Y2A | 2.69
158 | Y2C | 1.55
159 | Y2D | 3.56
160 | Y2E | 4.26
161 | Y2F | 2.22
162 | Y2G | 2.74
163 | Y2H | 1.59
164 | Y2I | 2.27
165 | Y2K | 2.41
166 | Y2L | 1.55
167 | Y2M | 2.4
